For the experiment, the target named is T1, ERK2-phosphorylated human PPARγ2 AF-1 domain (pS112 + pT75), residues 1-136 (human, UniProt P37231-1 1-136).
T1 sequence: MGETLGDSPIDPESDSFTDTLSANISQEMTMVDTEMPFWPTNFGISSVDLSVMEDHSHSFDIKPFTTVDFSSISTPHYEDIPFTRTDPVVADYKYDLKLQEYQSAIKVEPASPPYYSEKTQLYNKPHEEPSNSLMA
In words: NMR titration.

The record followed here is publication PMC11291072 (bioRxiv, 2024).

B1: Pin1 PPIase domain (residues 42-163) (domain or fragment)
chain: SSGGKNGQGEPARVRCSHLLVKHSQSRRPSSWRQEKITRTKEEALELINGYIQKIKSGEEDFESLASQFSDCSSAKARGDLGAFSRGQMQKPFEDASFALRTGEMSGPVFTDSGIHIILRTE
Turning to B1, the binding result is “binds”.
